In test [1] the target is human IgE (human) (UniProt P01854). Briefly: ELISA-based potency on human IgE; GI-301 100 mg/mL, 250 mM proline, histidine/HCl pH 6.7, 0.1 w/v % Tween 80 and 20 mg/mL methionine; after 35° C., 200 rpm, 14 days; n=2.
The target is the same in test [2]. Briefly: ELISA-based potency on human IgE; GI-301 100 mg/mL, 250 mM proline, histidine/HCl pH 6.7, no additive; after 35° C., 200 rpm, 5 days; n=2.
Test [3] shares this target. Briefly: ELISA-based potency on human IgE; GI-301 100 mg/mL, 250 mM proline, histidine/HCl pH 6.7, 0.1 w/v % Tween 80; after 35° C., 200 rpm, 5 days; n=2.
For test [4] the target is unchanged. Description: ELISA-based potency on human IgE; GI-301 100 mg/mL, 250 mM proline, histidine/HCl pH 6.7, 0.1 w/v % Tween 80; after 35° C., 200 rpm, 14 days; n=2. A general note: An ELISA detects its analyte on a solid surface through an enzyme-linked reagent.
For test [5] the target is unchanged. Briefly: ELISA-based potency on human IgE; GI-301 100 mg/mL, 250 mM proline, histidine/HCl pH 6.7, 20 mg/mL methionine; after 35° C., 200 rpm, 5 days; n=2.
Test [6] shares this target. Briefly: ELISA-based potency on human IgE; GI-301 100 mg/mL, 250 mM proline, histidine/HCl pH 6.7, 0.1 w/v % Tween 80; after light stress (7.5 hours, 750 W/m^2); n=2.
The target is the same in test [7]. Description: ELISA relative potency; GI-301 dialyzed into 10 mM Tris/HCl pH 7.4, 250 mM mannitol.
For test [8] the target is unchanged. Description: ELISA-based potency on human IgE; GI-301 100 mg/mL, 250 mM proline, histidine/HCl pH 6.7, 0.1 w/v % Tween 80 and 20 mg/mL methionine; after light stress (7.5 hours, 750 W/m^2); n=2.
Test [9] shares this target. Description: ELISA-based potency on human IgE; GI-301 100 mg/mL, 250 mM proline, histidine/HCl pH 6.7, 20 mg/mL methionine; after light stress (7.5 hours, 750 W/m^2); n=2.
For test [10] the target is unchanged. Description: ELISA-based potency on human IgE; GI-301 100 mg/mL, 250 mM proline, histidine/HCl pH 6.7, 0.1 w/v % Tween 80 and 20 mg/mL methionine; after 35° C., 200 rpm, 5 days; n=2.
Test [11] has the same target. Briefly: ELISA-based potency on human IgE; GI-301 100 mg/mL, 250 mM proline, histidine/HCl pH 6.7, no additive; after 35° C., 200 rpm, 14 days; n=2.
Test [12] has the same target. Briefly: ELISA-based potency on human IgE; GI-301 100 mg/mL, 250 mM proline, histidine/HCl pH 6.7, 20 mg/mL methionine; after 35° C., 200 rpm, 14 days; n=2.
Test [13] has the same target. Description: ELISA relative potency; GI-301 dialyzed into 10 mM His/HCl pH 6.7, 250 mM proline.
Test [14] has the same target. Briefly: ELISA relative potency; GI-301 dialyzed into 10 mM His/HCl pH 6.7, 250 mM mannitol.
Test [15] has the same target. Description: ELISA relative potency; GI-301 dialyzed into 10 mM Tris/HCl pH 7.4, 250 mM proline.
Test [16] has the same target. Description: ELISA relative potency; GI-301 dialyzed into 10 mM His/HCl pH 6.7, 250 mM trehalose.
Test [17] shares this target. Description: ELISA-based potency on human IgE; GI-301 100 mg/mL, 250 mM proline, histidine/HCl pH 6.7, no additive; after light stress (7.5 hours, 750 W/m^2); n=2.

Sequence of UniProt P01854 (P01854 other isoform, or with tags, fused parts or gaps): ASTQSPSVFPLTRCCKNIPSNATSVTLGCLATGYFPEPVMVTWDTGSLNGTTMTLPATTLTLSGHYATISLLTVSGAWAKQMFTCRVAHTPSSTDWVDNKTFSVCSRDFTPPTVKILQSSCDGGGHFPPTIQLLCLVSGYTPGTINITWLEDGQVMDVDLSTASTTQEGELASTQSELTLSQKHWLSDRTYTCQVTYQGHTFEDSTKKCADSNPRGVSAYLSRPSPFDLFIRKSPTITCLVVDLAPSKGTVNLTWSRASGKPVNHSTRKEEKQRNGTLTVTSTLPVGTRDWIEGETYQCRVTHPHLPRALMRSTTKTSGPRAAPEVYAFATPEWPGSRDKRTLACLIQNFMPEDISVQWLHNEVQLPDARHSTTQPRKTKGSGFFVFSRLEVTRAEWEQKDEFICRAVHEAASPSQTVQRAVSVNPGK

B1: GI-301 (fusion protein dimer comprising FcεRIα ECD and modified Fc region) (Fc fusion, not shown: small tags and cut ends)
chain: VPQKPKVSLNPPWNRIFKGENVTLTCNGNNFFEVSSTKWFHNGSLSEETNSSLNIVNAKFEDSGEYKCQHQQVNESEPVYLEVFSDWLLLQASAEVVMEGQPLFLRCHGWRNWDVYKVIYYKDGEALKYWYENHNISITNATVEDSGTYYCTGKVWQLDYESEPLNITVIKAPREKYWLQSHTQPLGVFLFPPKPKDTLMISRTPEVTCVVVDVSQEDPEVQFNWYVDGVEVHNAKTKPREEQFNSTYRVVSVLTVLHQDWLNGKEYKCKVSNKGLPSSIEKTISKAKGQPREPQVYTLPPSQEEMTKNQVSLTCLVKGFYPSDIAVEWESNGQPENNYKTTPPVLDSDGSFFLYSRLTVDKSRWQEGNVFSCSVMHEALHNHYTQKSLSLSLGK
In the case of B1, the relative potency by ELISA with human IgE (human) [1] worked out at 111%; in the test with human IgE (human) [2], 79.7%; in the test with human IgE (human) [3] it was 92.1%; in the test with human IgE (human) [4] it was 80.4%; in the test with human IgE (human) [5] it was 113%; in the test with human IgE (human) [6], 110%. In addition, the relative potency by ELISA in the test with human IgE (human) [8] turned out to be 111%; with human IgE (human) [9], 112%; with human IgE (human) [10] it was 94.3%; with human IgE (human) [11] it was 105%; with human IgE (human) [12] it was 74.2%; with human IgE (human) [17] it was 110%. Moreover, the potency ELISA [%] (relative potency) stood at 92% with human IgE (human) [7]; 101% in the test with human IgE (human) [13]; 98% with human IgE (human) [14]; 106% with human IgE (human) [15]; 103% with human IgE (human) [16].

The values above are taken from patent US20240148829A1.
